Key:
[1] = biological target: LGN^TPR-ΔOLIGO (LGN^13–350) (human); experiment: SEC-MALS; static light scattering (SLS) on a Viscotek GPCmax/TDA with two TSKgel G3000PWxl columns in series; 75 μl of purified sample at about 1.5–2 mg/ml
[2] = biological target: the molecule itself; experiment: as above
αβ-tubulin hetero-dimers = αβ-tubulin hetero-dimers (UniProt P02554 1-445); experiment: SEC; Superdex-200 Increase 3.2/300; 26 µM NuMA^2002–2115 and 20 µM αβ-tubulin hetero-dimers; GT buffer (80 mM PIPES pH 6.8, 1 mM MgCl2, 1 mM EGTA) with 60 mM NaCl and 1 mM DTT; Tris-Tricine-SDS-PAGE; conditions: both partners purified
[3] = biological target: T1, LGN^1–409 (TPR domain of LGN) (human); experiment: SEC; analytical SEC, Superdex-200 Increase 3.2/300; LGN and NuMA variants mixed in equimolar amounts (20 μM; LGN^TPR:NuMA^PEPT 1:2); 20 mM Tris-HCl pH 8.0, 0.150 M NaCl, 5% glycerol, 1 mM DTT; fractions checked by SDS-PAGE
T1 sequence (P81274 whole entry, looked up): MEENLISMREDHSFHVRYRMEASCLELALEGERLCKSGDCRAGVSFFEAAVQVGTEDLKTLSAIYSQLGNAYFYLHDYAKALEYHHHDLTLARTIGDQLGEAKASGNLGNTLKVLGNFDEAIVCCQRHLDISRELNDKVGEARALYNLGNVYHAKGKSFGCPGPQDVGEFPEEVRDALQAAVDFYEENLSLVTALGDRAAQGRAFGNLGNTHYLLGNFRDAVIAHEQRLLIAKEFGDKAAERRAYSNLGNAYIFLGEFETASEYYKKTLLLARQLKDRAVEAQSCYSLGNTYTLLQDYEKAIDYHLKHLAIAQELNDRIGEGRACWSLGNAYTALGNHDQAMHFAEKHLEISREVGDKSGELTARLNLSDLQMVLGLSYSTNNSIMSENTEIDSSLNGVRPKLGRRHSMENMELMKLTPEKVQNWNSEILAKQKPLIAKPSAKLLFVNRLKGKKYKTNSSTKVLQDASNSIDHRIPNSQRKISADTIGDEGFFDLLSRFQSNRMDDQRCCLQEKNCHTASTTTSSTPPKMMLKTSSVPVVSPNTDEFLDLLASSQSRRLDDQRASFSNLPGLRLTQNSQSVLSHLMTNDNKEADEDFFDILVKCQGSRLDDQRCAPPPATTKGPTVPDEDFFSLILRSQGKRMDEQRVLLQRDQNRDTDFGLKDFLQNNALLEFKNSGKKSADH

LGN^7–367 (human) = biological target: T2, LGN^7–367 (human); experiment: SEC-MALS; static light scattering (SLS) on a Viscotek GPCmax/TDA with two TSKgel G3000PWxl columns in series; 75 μl of purified sample at about 1.5–2 mg/ml
T2 sequence (P81274 whole entry, looked up): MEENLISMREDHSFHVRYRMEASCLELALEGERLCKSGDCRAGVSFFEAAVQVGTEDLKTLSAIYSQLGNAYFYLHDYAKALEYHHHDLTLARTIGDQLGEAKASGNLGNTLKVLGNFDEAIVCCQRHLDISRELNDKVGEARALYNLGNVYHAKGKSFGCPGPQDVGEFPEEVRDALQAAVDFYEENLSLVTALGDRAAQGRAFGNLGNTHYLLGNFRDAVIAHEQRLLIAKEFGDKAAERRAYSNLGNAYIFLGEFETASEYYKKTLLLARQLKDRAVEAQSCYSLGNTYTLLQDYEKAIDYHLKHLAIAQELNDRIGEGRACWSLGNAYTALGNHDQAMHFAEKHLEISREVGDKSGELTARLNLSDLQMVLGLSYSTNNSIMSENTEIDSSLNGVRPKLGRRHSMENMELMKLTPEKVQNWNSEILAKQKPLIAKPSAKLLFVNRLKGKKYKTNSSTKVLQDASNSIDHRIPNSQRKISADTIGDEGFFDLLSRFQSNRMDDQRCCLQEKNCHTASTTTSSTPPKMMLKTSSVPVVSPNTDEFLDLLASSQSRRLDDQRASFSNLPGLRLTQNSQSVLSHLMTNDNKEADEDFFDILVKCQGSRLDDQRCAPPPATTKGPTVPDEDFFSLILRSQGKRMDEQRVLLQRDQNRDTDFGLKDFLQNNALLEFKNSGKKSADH

LGN^13–409 (human) = biological target: T3, LGN^13–409 (human); experiment: SEC + SEC-MALS; SEC and SLS assays on a battery of truncated LGN and NuMA mutants (Fig. 1c, d)
T3 sequence (P81274 whole entry, looked up): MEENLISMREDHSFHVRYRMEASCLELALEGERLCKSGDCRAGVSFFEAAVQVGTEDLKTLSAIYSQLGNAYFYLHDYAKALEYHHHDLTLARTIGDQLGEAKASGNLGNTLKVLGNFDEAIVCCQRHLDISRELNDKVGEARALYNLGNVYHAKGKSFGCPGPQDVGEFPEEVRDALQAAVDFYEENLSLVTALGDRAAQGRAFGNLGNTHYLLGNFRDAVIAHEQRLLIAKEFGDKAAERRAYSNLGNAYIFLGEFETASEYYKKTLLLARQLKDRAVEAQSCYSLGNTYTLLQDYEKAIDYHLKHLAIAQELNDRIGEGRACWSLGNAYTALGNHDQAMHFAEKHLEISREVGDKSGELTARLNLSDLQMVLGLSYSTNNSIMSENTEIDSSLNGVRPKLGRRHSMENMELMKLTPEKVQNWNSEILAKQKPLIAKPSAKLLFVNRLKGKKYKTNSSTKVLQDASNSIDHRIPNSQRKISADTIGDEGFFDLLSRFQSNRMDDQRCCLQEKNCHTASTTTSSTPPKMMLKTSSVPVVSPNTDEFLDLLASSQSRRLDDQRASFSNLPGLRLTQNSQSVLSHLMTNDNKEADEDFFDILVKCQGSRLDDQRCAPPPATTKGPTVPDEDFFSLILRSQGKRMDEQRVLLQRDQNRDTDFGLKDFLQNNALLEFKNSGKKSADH

LGN^1–350 (human) = biological target: T4, LGN^1–350 (human); experiment: as above
T4 sequence (P81274 whole entry, looked up): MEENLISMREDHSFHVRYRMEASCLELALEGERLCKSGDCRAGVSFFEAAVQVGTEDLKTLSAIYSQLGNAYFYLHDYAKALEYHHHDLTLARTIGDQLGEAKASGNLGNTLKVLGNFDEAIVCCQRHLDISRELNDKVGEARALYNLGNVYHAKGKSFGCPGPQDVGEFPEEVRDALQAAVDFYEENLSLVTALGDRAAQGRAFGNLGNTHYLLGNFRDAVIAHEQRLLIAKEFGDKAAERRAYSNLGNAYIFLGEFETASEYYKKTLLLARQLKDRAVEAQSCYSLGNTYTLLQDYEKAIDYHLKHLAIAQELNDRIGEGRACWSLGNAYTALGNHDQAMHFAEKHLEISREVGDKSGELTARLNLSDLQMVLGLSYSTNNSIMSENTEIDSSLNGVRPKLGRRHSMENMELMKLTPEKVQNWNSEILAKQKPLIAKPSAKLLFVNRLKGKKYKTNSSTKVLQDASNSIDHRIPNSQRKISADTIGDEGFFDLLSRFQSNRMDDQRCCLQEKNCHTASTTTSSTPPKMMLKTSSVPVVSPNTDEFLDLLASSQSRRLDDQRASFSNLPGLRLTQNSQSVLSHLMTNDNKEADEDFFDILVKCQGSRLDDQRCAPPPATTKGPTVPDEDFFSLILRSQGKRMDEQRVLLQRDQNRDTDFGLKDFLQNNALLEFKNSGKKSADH

Sequence of αβ-tubulin hetero-dimers (P68363 whole entry, chain 1 of 2, the tested form may be a part): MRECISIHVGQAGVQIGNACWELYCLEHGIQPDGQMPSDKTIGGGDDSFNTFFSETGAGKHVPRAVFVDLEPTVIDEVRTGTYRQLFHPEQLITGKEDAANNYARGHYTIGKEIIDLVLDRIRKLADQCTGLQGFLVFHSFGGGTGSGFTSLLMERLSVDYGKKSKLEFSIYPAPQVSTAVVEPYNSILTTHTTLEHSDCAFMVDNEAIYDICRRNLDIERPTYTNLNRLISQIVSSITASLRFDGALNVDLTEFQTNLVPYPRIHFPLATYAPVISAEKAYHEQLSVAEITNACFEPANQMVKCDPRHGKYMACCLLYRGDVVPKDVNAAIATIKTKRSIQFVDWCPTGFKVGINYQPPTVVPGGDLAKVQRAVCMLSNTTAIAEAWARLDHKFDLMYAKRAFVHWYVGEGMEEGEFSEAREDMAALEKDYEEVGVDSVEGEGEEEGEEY
Sequence of αβ-tubulin hetero-dimers (P02554 whole entry, chain 2 of 2, the tested form may be a part): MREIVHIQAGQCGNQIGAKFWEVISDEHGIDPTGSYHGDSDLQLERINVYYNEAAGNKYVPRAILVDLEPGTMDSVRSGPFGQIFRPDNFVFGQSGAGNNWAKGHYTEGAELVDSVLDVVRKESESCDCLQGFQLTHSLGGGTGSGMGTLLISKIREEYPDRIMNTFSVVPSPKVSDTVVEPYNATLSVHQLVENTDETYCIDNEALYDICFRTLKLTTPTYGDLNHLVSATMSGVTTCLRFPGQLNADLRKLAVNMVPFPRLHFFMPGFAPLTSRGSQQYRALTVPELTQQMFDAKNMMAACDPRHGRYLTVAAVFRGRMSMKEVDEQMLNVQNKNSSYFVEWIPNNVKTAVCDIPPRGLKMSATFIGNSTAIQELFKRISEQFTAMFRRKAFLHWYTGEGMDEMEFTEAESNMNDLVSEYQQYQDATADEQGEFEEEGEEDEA

B1: NuMA chimera (NuMA 1592–1694 joined to NuMA 1821–2001 by eight Thr-Gly-Ser repeats) (domain or fragment, human)
chain: QLNELQAQLSQKEQAAEHYKLQMEKAKTHYDAKKQQNQELQEQLRSLEQLQKENKELRAEAERLGHELQQAGLKTKEAEQTCRHLTAQVRSLEAQVAHADQQLTGSTGSTGSTGSTGSTGSTGSTGSKKLDVEEPDSANSSFYSTRSAPASQASLRATSSTQSLARLGSPDYGNSALLSLPGYRPTTRSSARRSQAGVSSGAPPGRNSFYMGTCQDEPEQLDDWNRIAELQQRNRVCPPHLKTCYPLESRPSLSLGTITDEEMKTGDPQETLRRASMQPIQIAEGTGITTRQQRKRVSLEPHQGPGTP
notes: NuMA, human, residues 1592-1694 (dimerizing coiled-coil); also called chimeric NuMA construct; source: E. coli BL21 Rosetta, purified (Ni HiTrap chelating, PreScission cleavage, Resource-Q, Superose-6)
stoichiometry N [1]: 1 | stoichiometry N [2]: 2

B2: NuMA^2002–2115 (domain or fragment, human, UniProt Q14980 2002-2115, looked up)
chain: ESKKATSCFPRPMTPRDRHEGRKQSTTEAQKKAAPASTKQADRRQSMAFSILNTPKKLGNSLLRRGASKKALSKASPNTRSGTRRSPRIATTTASAATAAAIGATPRAKGKAKH
stoichiometry N (αβ-tubulin hetero-dimers): 1

B3: NuMA^1592–1694 (domain or fragment, human, UniProt Q14980 1592-1694, looked up)
chain: QLNELQAQLSQKEQAAEHYKLQMEKAKTHYDAKKQQNQELQEQLRSLEQLQKENKELRAEAERLGHELQQAGLKTKEAEQTCRHLTAQVRSLEAQVAHADQQL
notes: NuMA, human, residues 1592-1694 (C-terminal portion of the coiled coil); also called C-terminal part of the NuMA coiled-coil
stoichiometry N [2]: 2

NSFYMGTCQDEPEQLDDWNRIAELQQRNR [NuMA^1900–1928]
stoichiometry N [3]: 1

B4: NuMA^1861–1928 (domain or fragment)
chain: GSPDYGNSALLSLPGYRPTTRSSARRSQAGVSSGAPPGRNSFYMGTCQDEPEQLDDWNRIAELQQRNR
stoichiometry N (LGN^7–367 (human)): 1 | stoichiometry N (LGN^13–409 (human)): 1 | stoichiometry N (LGN^1–350 (human)): 1
